For assay [1], the target named is human relaxin family peptide receptor 2 (RXFP2) (human) (UniProt Q8WXD0).
For assay [2] the target is unchanged. This is another data set of the same source.
In assay [3] the target is rat relaxin family peptide receptor 2 (RXFP2) (rat) (UniProt Q5ECL0).
Assay [4] has as its target human relaxin family peptide receptor 2 (RXFP2) (human) (UniProt Q8WXD0). The source holds these as a separate data set.
Assay [5] concerns the target rat relaxin family peptide receptor 2 (RXFP2) (rat) (UniProt Q5ECL0). This is another data set of the same source.
Assay [6] shares this target. This is another data set of the same source.
In assay [7] the target is human relaxin family peptide receptor 2 (RXFP2) (human) (UniProt Q8WXD0). This is another data set of the same source.
Another assay addresses rat RXFP1 (rat) (UniProt Q6R6I6).

Chain of human relaxin family peptide receptor 2 (RXFP2) (human) (Q8WXD0 whole entry): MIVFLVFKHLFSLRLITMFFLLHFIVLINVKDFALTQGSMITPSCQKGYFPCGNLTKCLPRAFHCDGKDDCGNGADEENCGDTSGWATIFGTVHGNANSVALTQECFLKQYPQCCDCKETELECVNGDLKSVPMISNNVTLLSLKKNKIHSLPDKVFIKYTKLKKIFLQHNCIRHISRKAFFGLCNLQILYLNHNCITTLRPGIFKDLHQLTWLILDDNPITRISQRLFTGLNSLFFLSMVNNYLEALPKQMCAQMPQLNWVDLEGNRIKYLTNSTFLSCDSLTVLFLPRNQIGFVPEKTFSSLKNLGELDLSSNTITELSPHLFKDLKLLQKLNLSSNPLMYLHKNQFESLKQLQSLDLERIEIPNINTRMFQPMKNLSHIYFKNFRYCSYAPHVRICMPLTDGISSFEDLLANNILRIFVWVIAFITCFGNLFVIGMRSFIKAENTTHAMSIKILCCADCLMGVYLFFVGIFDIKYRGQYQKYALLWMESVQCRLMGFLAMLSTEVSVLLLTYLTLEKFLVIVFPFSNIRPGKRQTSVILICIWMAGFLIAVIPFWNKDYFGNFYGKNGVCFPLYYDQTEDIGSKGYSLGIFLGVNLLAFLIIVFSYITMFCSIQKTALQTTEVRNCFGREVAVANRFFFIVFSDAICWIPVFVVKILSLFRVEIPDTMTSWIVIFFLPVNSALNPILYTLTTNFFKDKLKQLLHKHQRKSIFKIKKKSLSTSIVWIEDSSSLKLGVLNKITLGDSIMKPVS
Chain of Human INSL3 (insulin-like peptide 3) (ligand) (P51460 21-131): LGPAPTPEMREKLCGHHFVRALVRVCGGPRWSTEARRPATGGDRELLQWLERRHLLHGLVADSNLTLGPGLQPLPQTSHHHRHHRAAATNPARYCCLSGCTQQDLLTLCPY
Chain of rat relaxin family peptide receptor 2 (RXFP2) (rat) (Q5ECL0 entry or part of it): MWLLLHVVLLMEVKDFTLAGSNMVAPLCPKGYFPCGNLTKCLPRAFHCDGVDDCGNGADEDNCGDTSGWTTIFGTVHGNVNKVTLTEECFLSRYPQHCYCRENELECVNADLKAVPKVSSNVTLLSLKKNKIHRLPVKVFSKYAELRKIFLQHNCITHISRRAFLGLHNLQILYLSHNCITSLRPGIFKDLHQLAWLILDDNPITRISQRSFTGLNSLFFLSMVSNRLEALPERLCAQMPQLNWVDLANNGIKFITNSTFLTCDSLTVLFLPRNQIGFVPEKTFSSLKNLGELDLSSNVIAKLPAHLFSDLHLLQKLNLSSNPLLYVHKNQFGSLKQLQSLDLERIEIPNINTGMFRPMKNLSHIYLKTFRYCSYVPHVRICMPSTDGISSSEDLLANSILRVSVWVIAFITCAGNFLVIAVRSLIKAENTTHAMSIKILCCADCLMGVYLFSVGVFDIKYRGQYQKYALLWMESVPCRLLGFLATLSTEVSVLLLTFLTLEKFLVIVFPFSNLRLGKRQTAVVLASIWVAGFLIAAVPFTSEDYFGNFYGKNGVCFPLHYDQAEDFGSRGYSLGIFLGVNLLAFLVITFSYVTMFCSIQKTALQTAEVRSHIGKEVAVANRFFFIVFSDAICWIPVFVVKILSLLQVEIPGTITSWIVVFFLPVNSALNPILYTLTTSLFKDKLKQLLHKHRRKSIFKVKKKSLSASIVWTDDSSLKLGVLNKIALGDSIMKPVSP
Chain of INSL3 (species not stated for the stable HEK293 cAMP assays) (ligand) (P51460 21-131): as the sequence (P51460 21-131) above
Chain of rat RXFP1 (rat) (Q6R6I6 whole entry): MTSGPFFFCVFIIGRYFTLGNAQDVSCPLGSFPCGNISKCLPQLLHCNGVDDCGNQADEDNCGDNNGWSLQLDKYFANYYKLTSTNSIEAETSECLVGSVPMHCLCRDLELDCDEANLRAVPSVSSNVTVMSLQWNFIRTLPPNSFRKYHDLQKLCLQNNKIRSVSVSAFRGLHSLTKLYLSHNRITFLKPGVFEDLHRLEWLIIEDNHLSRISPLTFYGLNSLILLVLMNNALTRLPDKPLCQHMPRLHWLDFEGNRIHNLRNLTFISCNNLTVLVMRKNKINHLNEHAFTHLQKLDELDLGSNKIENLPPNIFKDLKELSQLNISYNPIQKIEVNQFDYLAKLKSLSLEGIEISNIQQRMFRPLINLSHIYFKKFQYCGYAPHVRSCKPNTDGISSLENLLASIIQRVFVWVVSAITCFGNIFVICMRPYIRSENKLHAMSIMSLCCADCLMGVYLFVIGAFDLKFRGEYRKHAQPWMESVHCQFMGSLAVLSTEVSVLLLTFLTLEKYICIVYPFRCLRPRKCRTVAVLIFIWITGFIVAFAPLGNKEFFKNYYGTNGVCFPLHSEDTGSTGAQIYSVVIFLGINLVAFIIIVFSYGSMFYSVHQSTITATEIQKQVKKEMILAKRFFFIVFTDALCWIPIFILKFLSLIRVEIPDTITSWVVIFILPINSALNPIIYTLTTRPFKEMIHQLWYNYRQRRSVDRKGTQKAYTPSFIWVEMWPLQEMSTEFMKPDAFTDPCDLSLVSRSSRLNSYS
Chain of relaxin (H2 Relaxin) (ligand) (P04090 25-185): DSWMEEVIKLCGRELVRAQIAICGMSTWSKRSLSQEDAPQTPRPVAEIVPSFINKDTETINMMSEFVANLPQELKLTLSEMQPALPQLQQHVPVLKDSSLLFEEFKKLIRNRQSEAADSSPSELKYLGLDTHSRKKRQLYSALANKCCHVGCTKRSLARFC

The substance “Human INSL3 (insulin-like peptide 3) (ligand)” showed an EC50, INSL3-induced cAMP (HTRF) in HEK293 expressing human RXFP2 (BacMam) in assay [1] of 0.048 nM. The EC50, INSL3-induced intracellular calcium (FLIPR) in HEK293 Gα16 cells transiently expressing RXFP2 in assay [2] was 13.4 nM. In assay [3], this substance displayed an EC50, CYP11B1 mRNA expression after 48 h in H295R-rRXFP2 of 0.3 nM and an EC50, CYP11B2 mRNA expression after 48 h in H295R-rRXFP2 of 0.4 nM. In assay [4], this substance gave an EC50, CYP11B1 mRNA expression after 48 h in H295R-hRXFP2 of 1.3 nM; an EC50, CYP11B2 mRNA expression after 48 h in H295R-hRXFP2 of 2 nM; an EC50, cAMP generation after 30 min in H295R stably expressing human RXFP2 of 4 nM. Also, the EC50, INSL3-induced cAMP in HEK293 transiently expressing rat RXFP2 (BacMam) in assay [5] worked out at 13 nM.
In assay [6], “INSL3 (species not stated for the stable HEK293 cAMP assays) (ligand)” came in with an EC50, INSL3-induced cAMP generation in HEK293-rRXFP2 cells (stable) of 8.4 nM. Further, the EC50, INSL3-induced cAMP generation in HEK293-hRXFP2 (stable) in assay [7] amounted to 2.9 nM.
The substance relaxin (H2 Relaxin) (ligand) gave an EC50, relaxin-induced cAMP generation in HEK293-rat RXFP1 (stable) in the assay with rat RXFP1 (rat) of 29.5 nM.
